Reference: patent US20200283528A1 (NUMAB THERAPEUTICS, published 2020)
Changes are numbered by the printed parent chain. Values belong to the binder of their own block, whether it stands above or below them.

What was measured:
[1] = target: T1, human PDL1 expressed on cells (human, UniProt Q9NZQ7 19-290); test: cell-based or functional assay
[2] = target: T1, human PDL1 expressed on cells; test: cell-based or functional assay; remark: listed apart in the source
[3] = target: T2, human PDL1 (recombinant, soluble) (human, UniProt Q9NZQ7 19-238); test: PDL1/PD-1 competition ELISA; PD-1 coated, biotinylated PDL1 1 ng/ml
T2 construct: also called hPDL1; hPD-L1
Description: (§1) ELISA microplates coated overnight at 4° C. with 4 μg/ml human PD-1 were washed three times with 450 μl wash buffer per well. Plates were blocked for 1 hour at room temperature by adding 300 μl of PBS with 1% BSA and 0.2% tween (dilution buffer) to each well. […] The mixtures were pre-incubated for 1 hour at room temperature under gentle agitation on a rotating mixer (21 rpm) and added to the microplates after 3 wash cycles with 450 μl wash buffer per well. Plates were incubated for 1.5 hours at room temperature under gentle agitation, then 10 ng/ml streptavidin-polyHRP40 was added to each microplate well after three washes with 450 μl of wash buffer per well. After 1 h incubation at RT, plates were washed three times with 450 μl wash buffer and TMB substrate solution was added. The enzymatic reaction was stopped after 6 minutes by addition of 1 M HCl and absorbance was measured at 450 nm using 690 nm as a reference wavelength. For calculation of IC₅₀ values, a four-parameter logistic (4PL) curve fit was performed in Graph Pad Prism using reference subtracted values.

[4] = target: T2, human PDL1 (recombinant, soluble); test: PDL1/B7-1 competition ELISA; B7-1 coated, biotinylated PDL1 40 ng/ml
Description: as §1, with “B7-1” for “PD-1”

[5] = target: T1, human PDL1 expressed on cells; test: cell-based or functional assay; remark: listed apart in the source
Fc tagged human PDL1 [6] = target: T3, Fc tagged human PDL1 (human, UniProt Q9NZQ7 19-238); test: SPR Biacore T200; PDL1-Fc captured
T3 construct: also called PDL1-Fc chimeric protein (human); not shown: Fc tag
Description: (§2) An antibody specific for the Fc region of human IgGs was immobilized on a sensor chip (CM5 sensor chip, GE Healthcare) by amine-coupling. […] After each injection cycle, surfaces were regenerated with one injection of a 3 M MgCl₂ solution. The apparent dissociation (kd) and association (kₐ) rate constants and the apparent dissociation equilibrium constant (KD) were calculated using one-to-one Langmuir binding model.

Fc tagged human PDL1 [7] = target: T3, Fc tagged human PDL1; test: SPR Biacore T200; PDL1-Fc captured; molecule 0.12-90 nM
Description: as §2

- NF-AT potency assay IC50 [1]: 0.137 µg/mL
- IL-2 secretion of SEA stimulated PBMC, EC50 in ng/ml [2]: 39.9 ng/mL
- IC50 [3]: 0.00835 µg/mL
- IC50 [4]: 0.0122 µg/mL
B1: PRO885 (38-02-A04 sc01 scDb-i/33-03-G02 sc01 scDb-o) (bispecific antibody)
chain: DIQMTQSPSSLSASVGDRVTITCQASQSINDYLAWYQQKPGKAPKLLIYKASTLASGVPSRFSGSGSGTDFTLTISSLQPEDFATYYCQQGYIITDIDNVFGTGTKVTVLGGGGGSQVQLQESGPGLVKPSETLSLTCKVSGFSFSNSYWICWIRQPPGKGLEWIGCTFVGSSDSTYYANWAKGRVTISVDSSKNQFSLKLSSVTAADTAVYYCARHPSDAVYGYANNLWGQGTLVTVSSGGGGSGGGGSGGGGSGGGGSIQMTQSPSSLSASVGDRVTITCQASQSINNVLAWYQQKPGKAPKLLIYRASTLASGVPSRFSGSGSGTDFTLTISSLQPEDFATYYCQSSYGNYGDFGTGTKVTVLGGGGGSQVQLQESGPGLVKPSETLSLTCKVSGFSFSSGYDMCWIRQPPGKGLEWIGCVVAGSVDITYYASWAKGRVTISVDSSKNQFSLKLSSVTAADTAVYYCARKDAYSDAFNLWGQGTLVTVSS

- NFAT reporter gene assay IC50 [5]: 0.0481 µg/mL
- NFAT reporter gene assay, improvement of neutralization potency against PRO885 [5]: 3 fold
- fold improvement in affinity against the CDR graft (PRO885) (Fc tagged human PDL1 [6]): 20 fold
- Kd (Fc tagged human PDL1 [7]): 3.5 pM
- IC50 [3]: 0.00128 µg/mL
B2: PRO1126 (38-02-A04 sc01 scDb-i/33_03_G02 sc03 Full scDb-o) (bispecific antibody)
chain: B1 chain with I2F, M4L, A43S, V374S, V396A, I410V, G422A, V446K, F453V, Y469F
